Article PMC8550178, “Enzymatically synthesized exopolysaccharide of a probiotic strain Leuconostoc mesenteroides NTM048 shows adjuvant activity to promote IgA antibody responses” (Gut Microbes, 2021)
Blank lines part the entries; values can stand above or below the molecule they belong to.

Assays:
Experiment in all cases: fructose release, DNS method
Conditions in all cases: 20 mM sodium acetate pH 5.5, 1 mM CaCl2, 28°C, 5-200 mM sucrose
Gtf2 = test system: T1, Gtf2; assay type: biochemical, Leuconostoc mesenteroides subsp. mesenteroides
T1 construct: signal peptide removed, C-terminal His6 (pET23b), E. coli BL21(DE3); full-length precursor 1479 residues; draft genome BOPR01000001
From the text: fructose release, DNS method on Gtf2

[1] = substrate: OC[C@H]1O[C@@](CO)(O[C@H]2O[C@H](CO)[C@@H](O)[C@H](O)[C@H]2O)[C@@H](O)[C@@H]1O; assay type: biochemical, Leuconostoc mesenteroides
From the text: fructose release, DNS method on LEUM1752

[2] = substrate: OC[C@H]1O[C@@](CO)(O[C@H]2O[C@H](CO)[C@@H](O)[C@H](O)[C@H]2O)[C@@H](O)[C@@H]1O; assay type: biochemical, Leuconostoc mesenteroides; remark: listed apart in the source
From the text: fructose release, DNS method on LEUM1747

Km (Gtf2): 23 mM
Molecule: OC[C@H]1O[C@@](CO)(O[C@H]2O[C@H](CO)[C@@H](O)[C@H](O)[C@H]2O)[C@@H](O)[C@@H]1O [sucrose]

B1: LEUM1752 (Leuconostoc mesenteroides subsp. mesenteroides ATCC 8293) (protein)
chain: DVSQNNGVVVATAVDQSNLDATTSDKSITTDDKAATTAATSTDDKATTTVATSTDDKDTTTAATSTDDKATTTVATSTDDKATTTAATSTDDKAATTAATSTDDKAATTAATSTDDKAATTADTSTDDKAATTAATSTDDKATTTAATSTDDKTATTVGTSDNNNSATASDKDVSSSAQKSQTIDNNSKTADTTAALEASSKNLKTIDGKTYYYDDDDQVKKNFATVIDGKVLYFDKETGALADTNDYQFLEGLTSENNTYTEHNASVGTSSDSYTNVDGYLTADSWYRPKDILVNGQNWESSKDDDLRPLLMTWWPDKATQVNYLNAMKYLDATETETVYTSDDSQDALNKAAQNIQVKIEEKISQEGQTQWLKDDISKFVDSQSNWNIASESKGTDHLQGGALLYVNSDKTPDANSDYRLLNRTPTNQTGTPLYTTDPTQGGYDFLLANDVDNSNPVVQAEQLNWMYYLLNFGSITNNDADANFDSIRVDAVDNVDADLLQIAADYFKAAYGVDKSDAISNQHVSILEDWSDNDAEYVKDNGDNQLSMDNKLRLSLKYSLTMPAVDQYGNKRSGLEPFLTNSLVDRTNDSTDNTAQPNYSFVRAHDSEVQTVIAEIIKQRIDPDSDGLSPTMDQLTEAFKIYNADQLKTDKEFTQYNIPSTYATILTNKDTVPRVYYGDMYTDDGQYMATKSLYYDAIDTLLKSRIKYVSGGQTMSMKYMQGDSSMAADSYRGILTSVRYGNGAMTATDAGTNETRTQGIAVIESNNPDLKLSSTDQVVVDMGIAHKNQAYRPALLTTKDGIDTYVSDSDVSQSLIRYTNSNGQLIFNSSDIVGTANPQVSGYLAVWVPVGASDTQDARTESSTATTADGQTLHSNAALDSQVIYESFSNFQSTPTTEAEYANVQIANNTDLYKSWGITNFEFPPQYRSSTDSSFLDSIIQNGYAFTDRYDLGFNTPTKYGTVDQLRTAIKALHATGIKAMADWVPDQIYNLTGKEVVAVQRVNNSGIYNQDSVINKTLYASQTVGGGEYQALYGGEFLDEIKKLYPSLFEKNQISTGVPMDASEKIKEWSAKYFNGTNIQGRGAYYVLKDWATNEYFKVSTSSNSSVFLPKQLTNEESNTGFISTDGGMTYYSTSGYQAKDTFIQDDKSNWYYFDKNGYMTYGFQTVNDNNYYFLPNGIELQDAILEDSKGNVYYFNQYGKQAVDGYYMLANKTWRYFDKNGVMANAGLTTVTVDGQEHIQYFDKNGIQVKGTSVKDADGKLRYFDTDSGDMVTNRFGENTDGTWSYFGADGIAVTGAQTISGQKLFFDADGQQIKGKEATDKKGKVHYYDANSGEMITNRFEKLSDGSWAYFNKKGNIVTGAQVINGQHLFFESNGNQVKGREYTATDGKMRYYDADSGDMVTNRFERISDGSWAYFGANGVAVTGEQNINGQQLYFDANGHQVKGAAVTQADGSQKYYDANSGEMIKS
notes: signal peptide removed, C-terminal His6 (pET23b), E. coli BL21(DE3)
Km [1]: 1.9 × 10^1 ± 0.1 mM
kcat/Km [1]: 1300 M⁻¹ s⁻¹

B2: LEUM1747 (Leuconostoc mesenteroides subsp. mesenteroides ATCC 8293) (protein)
chain: TPSVLGDSSVPDVSANNVQSASDNTTDTQQNTTVTEENDKVQSAATNDNVTTAASDTTQSADNNVTEKQSDDHALDNEKVDNKQDEVAQTNVTSKDEESAVASTDTDPAETTTDETQQVSGKYVEKDGSWYYYFDDGKNAKGLSTIDNNIQYFDESGKQVKGQYVTIDNQTYYFDKDSGDELTGLQSIDGNIVAFNDEGQQIFNQYYQSENGTTYYFDDKGHAATGIKNIEGKNYYFDNLGQLKKGFSGVIDGQIMTFDQETGQEVSNTTSEIKEGLTTQNTDYSEHNAAHGTDAEDFENIDGYLTASSWYRPTDILRNGTDWEPSTDTDFRPILSVWWPDKNTQVNYLNYMADLGFISNADSFETGDSQSLLNEASNYVQKSIEMKISAQQSTEWLKDAMAAFIVTQPQWNETSEDMSNDHLQNGALTYVNSPLTPDANSNFRLLNRTPTNQTGEQAYNLDNSKGGFELLLANDVDNSNPVVQAEQLNWLYYLMNFGTITANDADANFDGIRVDAVDNVDADLLQIAADYFKLAYGVDQNDATANQHLSILEDWSHNDPLYVTDQGSNQLTMDDYVHTQLIWSLTKSSDIRGTMQRFVDYYMVDRSNDSTENEAIPNYSFVRAHDSEVQTVIAQIVSDLYPDVENSLAPTTEQLAAAFKVYNEDEKLADKKYTQYNMASAYAMLLTNKDTVPRVYYGDLYTDDGQYMATKSPYYDAINTLLKARVQYVAGGQSMSVDSNDVLTSVRYGKDAMTASDTGTSETRTEGVGVIVSNNAELQLEDGHTVTLHMGAAHKNQAYRALLSTTADGLAYYDTDENAPVAYTDANGDLIFTNESIYGVQNPQVSGYLAVWVPVGAQQDQDARTASDTTTNTSDKVFHSNAALDSQVIYEGFSNFQAFATDSSEYTNVVIAQNADQFKQWGVTSFQLAPQYRSSTDTSFLDSIIQNGYAFTDRYDLGYGTPTKYGTADQLRDAIKALHASGIQAIADWVPDQIYNLPEQELATVTRTNSFGDDDTDSDIDNALYVVQSRGGGQYQEMYGGAFLEELQALYPSLFKVNQISTGVPIDGSVKITEWAAKYFNGSNIQGKGAGYVLKDMGSNKYFKVVSNTEDGDYLPKQLTNDLSETGFTHDDKGIIYYTLSGYRAQNAFIQDDDNNYYYFDKTGHLVTGLQKINNHTYFFLPNGIELVKSFLQNEDGTIVYFDKKGHQVFDQYITDQNGNAYYFDDAGVMLKSGLATIDGHQQYFDQNGVQVKDKFVIGTDGYKYYFEPGSGNLAILRYVQNSKNQWFYFDGNGHAVTGFQTINGKKQYFYNDGHQSKGEFIDADGDTFYTSATDGRLVTGVQKINGITYAFDNTGNLITNQYYQLADGKYMLLDDSGRAKTGFVLQDGVLRYFDQNGEQVKDAIIVDPDTNLSYYFNATQGVAVKNDYFEYQGNWYLTDANYQLIKGFKAVDDSLQHFDEVTGVQTKDSALISAQGKVYQFDNNGNAVSA
notes: as for B1
Km [2]: 2.5 × 10^1 ± 0.2 mM
kcat/Km [2]: 1400 M⁻¹ s⁻¹
